How the values were obtained:
Format in all cases: biochemical
[1] = biological target: T1, Arabidopsis AHAS large subunit (wild type) (Arabidopsis thaliana, UniProt P17597); test: AHAS assay of purified wild type large subunit with added substances
T1 construct: GST (glutathione transferase) (N, cleaved yes); made in house; host or cells: E. coli DH5alpha
T1 sequence (P17597 56-670): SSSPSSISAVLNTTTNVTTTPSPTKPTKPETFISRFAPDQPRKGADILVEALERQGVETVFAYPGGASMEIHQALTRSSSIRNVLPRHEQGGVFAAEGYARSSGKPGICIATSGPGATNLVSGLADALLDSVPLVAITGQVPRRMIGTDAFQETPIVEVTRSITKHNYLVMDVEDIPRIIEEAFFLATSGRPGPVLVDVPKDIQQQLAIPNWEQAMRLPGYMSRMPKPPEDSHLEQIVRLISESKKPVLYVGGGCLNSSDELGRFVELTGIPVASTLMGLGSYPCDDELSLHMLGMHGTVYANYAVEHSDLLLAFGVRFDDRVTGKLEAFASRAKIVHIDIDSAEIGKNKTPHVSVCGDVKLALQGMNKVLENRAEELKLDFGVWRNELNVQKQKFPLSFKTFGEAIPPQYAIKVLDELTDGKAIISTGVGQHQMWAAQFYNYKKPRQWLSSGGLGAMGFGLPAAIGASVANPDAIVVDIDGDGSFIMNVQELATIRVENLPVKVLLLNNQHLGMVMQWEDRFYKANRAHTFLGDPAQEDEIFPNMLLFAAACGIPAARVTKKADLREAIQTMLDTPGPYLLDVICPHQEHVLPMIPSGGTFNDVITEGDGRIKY
Experimental: (§1) AHAS assays. AHAS assays were performed with slight modification as described by Singh et al. {Singh et al., 1988}. AHAS activity was assayed in 1× AHAS assay buffer (50 mM HEPES pH 7.0, 100 mM pyruvate, 10 mM MgCl2, 1 mM TPP, and 50 μM FAD). A final concentration of 1× assay buffer was obtained either by dilution of enzyme extracted in 2× assay buffer or addition of enzyme to make a final concentration 1×AHAS assay buffer. All assays containing imazethapyr and associated controls contained a final concentration of 5% DMSO due to addition of imazethapyr to assay mixtures as a 50% DMSO solution. Assays were performed in a final volume of 250 μL at 37° C. in microtiter plates.
Effects of Dithiothreitol. The effect of dithiothreitol (DTT) in Phosphate Buffered Saline (MTPBS) on AHAS large subunit enzyme activity was measured. Experiments were carried out with or without 3 mM DTT in the purified protein solution of large subunit. The assays were conducted as above. […] Moreover, in the absence of DTT, large subunit activity degraded over the 4 day period (FIG. 6).
Effects of Bovine Serum Albumin. To determine whether the enhancement of the large subunit was specific to the small subunit, another nonspecific control which tested the effects of bovine serum albumin was run. To a fixed amount of large subunit an increasing amount of a 0.25 mg/mil BSA solution was added.
(§2) The following experiments used the small subunit and large subunit proteins purified as described in Example 2 above. The plasmid F1 containing the AHAS small subunit gene from Arabidopsis was expressed in E. coli and partially purified. The protein concentration of the sample was determined and aliquots of increasing concentration were added to a constant amount of purified Arabidopsis large subunit.

[2] = biological target: T2, herbicide-resistant mutant (Met124 His) large subunit Arabidopsis AHAS protein (Arabidopsis thaliana, UniProt P17597, M124H); test: AHAS assay of herbicide-resistant mutant large subunit with added small subunit; settings: mutant with methionine at position 124 substituted by histidine (FIG. 9)
T2 construct: GST (glutathione transferase) (N, cleaved yes); made in house; host or cells: E. coli DH5alpha
Experimental: as §1, §2
In another experiment, a herbicide-resistant mutant of the large subunit enzyme (substitution mutation at position 124, methionine substituted by histidine) was used.

[3] = biological target: T3, Arabidopsis AHAS large subunit (Arabidopsis thaliana, UniProt P17597); test: Stability of AHAS large subunit activity on storage in MTPBS with or without DTT
T3 construct: GST (glutathione transferase) (N, cleaved yes); made in house; host or cells: E. coli DH5alpha
T3 sequence (P17597 56-670): T1 sequence (P17597 56-670)
Experimental: The cell pellet from 1 liter of cell culture was resuspended in 10 ml of MTPBS (150 mM NaCl, 16 mM Na2HPO4, 4 mM NaH2PO4), pH 7.3 (Smith and Johnson Gene 67: 31-40, […]) and 100 μg/ml of lysozyme was added. The suspension was adjusted to 5 mM dithiothreitol. Triton X-100 was added to a final concentration of 1% by addition of a 20% Triton X-100 in MTPBS solution. The cells were shaken gently at 30° C. for 15 minutes and were then cooled to 4° C. on ice and sonicated for 8-10 seconds using a microtip probe, duty cycle 70%, output control at maximum for the microtip pulser. The sonicate was centrifuged two times in a J20 rotor, 17,000 rpm, 4° C., 10 minutes, to remove insoluble material. Lysate was added to 150 mg (dry weight) of glutathione agarose (equilibrated and hydrated in MTPBS) and inverted for 30 minutes at 4° C. Agarose was settled by centrifugation at 500 rpm for 5 minutes and was washed with ice cold MTPBS by repeated centrifugation cycles until the A280 of the wash matched that of MTPBS. Agarose was transferred to an appropriate column for elution. Fusion proteins were eluted with 50 mM Tris-HCl, 5 mM reduced glutathione into 1 ml fractions. […]
Effects of Dithiothreitol. The effect of dithiothreitol (DTT) in Phosphate Buffered Saline (MTPBS) on AHAS large subunit enzyme activity was measured. […]

T2 sequence (P17597 56-670 M124H): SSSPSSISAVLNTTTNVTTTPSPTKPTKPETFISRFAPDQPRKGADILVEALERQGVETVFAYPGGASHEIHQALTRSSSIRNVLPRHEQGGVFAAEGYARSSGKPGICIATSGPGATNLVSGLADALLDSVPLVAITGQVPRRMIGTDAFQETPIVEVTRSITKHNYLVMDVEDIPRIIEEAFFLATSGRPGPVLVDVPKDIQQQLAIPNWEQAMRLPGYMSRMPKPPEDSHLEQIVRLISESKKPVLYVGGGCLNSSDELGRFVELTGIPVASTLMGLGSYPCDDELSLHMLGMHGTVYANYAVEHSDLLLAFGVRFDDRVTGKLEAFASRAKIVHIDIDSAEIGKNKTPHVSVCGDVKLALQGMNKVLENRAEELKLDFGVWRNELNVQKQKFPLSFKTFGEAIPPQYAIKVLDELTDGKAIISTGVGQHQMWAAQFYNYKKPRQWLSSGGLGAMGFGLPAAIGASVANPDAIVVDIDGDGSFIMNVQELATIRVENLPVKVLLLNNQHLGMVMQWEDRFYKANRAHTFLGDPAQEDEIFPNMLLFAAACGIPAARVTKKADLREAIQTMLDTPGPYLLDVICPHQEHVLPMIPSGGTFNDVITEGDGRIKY
T2 sequence (Q93YZ7 233-491 P488L, further chain): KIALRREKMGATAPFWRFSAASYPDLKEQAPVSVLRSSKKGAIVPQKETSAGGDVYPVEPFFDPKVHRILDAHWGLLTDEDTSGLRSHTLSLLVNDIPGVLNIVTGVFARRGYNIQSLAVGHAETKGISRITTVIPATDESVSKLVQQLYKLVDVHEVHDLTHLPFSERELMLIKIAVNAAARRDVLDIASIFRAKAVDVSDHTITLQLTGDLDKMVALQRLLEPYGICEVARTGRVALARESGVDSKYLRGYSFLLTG

## O[C@H](CS)[C@H](O)CS (racemic) [DTT, dithiothreitol]
[1]; 3 mM DTT in MTPBS versus no DTT (FIG. 5 vs FIG. 6)
  effect on catalytic activity of the AHAS large subunit: enhanced dramatically
[1]; versus reduced glutathione and β-mercaptoethanol
  stabilization and activation of the enzyme compared with other sulfhydryl reductants: better than reduced glutathione and β-mercaptoethanol

## Arabidopsis small subunit protein: Arabidopsis AHAS small subunit expressed from plasmid F1 in E. coli and partially purified
[1]; increasing small subunit (from plasmid F1) added to constant wild type large subunit (FIG. 8)
  effect on enzymatic activity of the catalytic large subunit: enhances the level of enzymatic activity
[2]
  effect on enzymatic activity of herbicide-resistant form of the large subunit: also enhanced

B1: Arabidopsis large subunit: purified wild type Arabidopsis AHAS large subunit protein expressed in E. coli (pAC774) (protein)
chain: SSISAVLNTTTNVTTTPSPTKPTKPETFISRFAPDQPRKGADILVEALERQGVETVFAYPGGASMEIHQALTRSSSIRNVLPRHEQGGVFAAEGYARSSGKPGICIATSGPGATNLVSGLADALLDSVPLVAITGQVPRRMIGTDAFQETPIVEVTRSITKHNYLVMDVEDIPRIIEEAFFLATSGRPGPVLVDVPKDIQQQLAIPNWEQAMRLPGYMSRMPKPPEDSHLEQIVRLISESKKPVLYVGGGCLNSSDELGRFVELTGIPVASTLMGLGSYPCDDELSLHMLGMHGTVYANYAVEHSDLLLAFGVRFDDRVTGKLEAFASRAKIVHIDIDSAEIGKNKTPHVSVCGDVKLALQGMNKVLENRAEELKLDFGVWRNELNVQKQKFPLSFKTFGEAIPPQYAIKVLDELTDGKAIISTGVGQHQMWAAQFYNYKKPRQWLSSGGLGAMGFGLPAAIGASVANPDAIVVDIDGDGSFIMNVQELATIRVENLPVKVLLLNNQHLGMVMQWEDRFYKANRAHTFLGDPAQEDEIFPNMLLFAAACGIPAARVTKKADLREAIQTMLDTPGPYLLDVICPHQEHVLPMIPSGGTFNDVITEGDGRIKY
[3]; absence of DTT, 4 day period (FIG. 6)
  stability of large subunit activity: degraded
[3]; in the presence of 3 mM DTT, 1 month, stored at 4° C.
  stability of large subunit: very stable

— US7498429B2, “AHAS small subunit promoter” (priority 1998, dated 2009)
